Our source for the interaction left relative to DNAJB14-FL (co-IP densitometry) and fold lower than DNAJB14-FL (co-IP densitometry) values is doi:10.1101/2021.04.08.438944.

The target of experiment [1] is DNAJB14-ΔDUF tagged with FLAG (human). The experiment can be described thus: co-IP.
Experiment [2] shares this target. The experiment can be described thus: co-IP. This is another data set of the same source.

Chain of DNAJB14-ΔDUF tagged with FLAG (human) (Q8TBM8 whole entry, stated change not applied): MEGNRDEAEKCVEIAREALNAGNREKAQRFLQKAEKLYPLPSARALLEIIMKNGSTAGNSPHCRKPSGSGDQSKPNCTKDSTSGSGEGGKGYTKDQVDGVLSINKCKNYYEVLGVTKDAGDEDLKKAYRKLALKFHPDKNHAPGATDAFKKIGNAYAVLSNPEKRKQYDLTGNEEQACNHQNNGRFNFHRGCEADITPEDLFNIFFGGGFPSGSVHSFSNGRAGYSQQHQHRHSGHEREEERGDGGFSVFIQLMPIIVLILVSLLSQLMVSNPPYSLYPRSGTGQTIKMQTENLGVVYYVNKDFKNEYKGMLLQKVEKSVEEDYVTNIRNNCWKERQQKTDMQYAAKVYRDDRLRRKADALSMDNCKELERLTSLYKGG

In experiment [1], “HSP70 (from UniProt P0DMV8 1-641) (natural protein)” showed an interaction left relative to DNAJB14-FL (co-IP densitometry) of 50%.

B1: DNAJB12-FL tagged with mOrange (natural protein)
chain: MESNKDEAERCISIALKAIQSNQPDRALRFLEKAQRLYPTPRVRALIESLNQKPQTAGDQPPPTDTTHATHRKAGGTDAPSANGEAGGESTKGYTAEQVAAVKRVKQCKDYYEILGVSRGASDEDLKKAYRRLALKFHPDKNHAPGATEAFKAIGTAYAVLSNPEKRKQYDQFGDDKSQAARHGHGHGDFHRGFEADISPEDLFNMFFGGGFPSSNVHVYSNGRMRYTYQQRQDRRDNQGDGGLGVFVQLMPILILILVSALSQLMVSSPPYSLSPRPSVGHIHRRVTDHLGVVYYVGDTFSEEYTGSSLKTVERNVEDDYIANLRNNCWKEKQQKEGLLYRARYFGDTDMYHRAQKMGTPSCSRLSEVQASLHG
In experiment [2], B1 registered a fold lower than DNAJB14-FL (co-IP densitometry) of 3 fold lower.
